The source of these data is US20260193315A1 (FBD BIOLOGICS, published 2026).

Substitutions are numbered along the chain they refer to.

For assay [1], the target named is T1, 4-1BB (coated on ELISA plate) (UniProt Q07011 24-186, limits assumed). Briefly: ELISA on coated 4-1BB, supernatant, OD450. How it is done:
(§1) After centrifugation, culture supernatant was collected for determination of expression and binding activity of the 4-1BBL variants. To determine expression of the 4-1BBL variants, a 96-well plate (flat bottom) was coated with 2 μg/ml anti-His tag antibody overnight. The pre-coated plate was then blocked with 5% milk in PBS at room temperature (RT) for 1 hour. After blocking, 30 μl of bacterial supernatant was added to each well of the plate, and the plate was incubated for 1 hour at RT. After the incubation, anti-c-myc-HRP was added, and the expression level of 4-1BBL variants can be determined by measuring OD450 in a plate reader. To determine binding activity of the 4-1BBL variants, a 96-well plate (flat bottom) was coated with 0.5 μg/ml of 4-1BB overnight. The pre-coated plate was then blocked with 5% milk in PBS at RT for 1 hour. After blocking, 30μ of bacterial supernatant was added to each well of the plate, and the plate was incubated for 1 hour at RT. After the incubation, anti-c-myc-HRP was added, and the 4-1BB-binding activity of 4-1BBL variants can be determined by measuring OD450 in a plate reader.
(An ELISA detects its analyte on a solid surface through an enzyme-linked reagent.)

Assay [2] concerns the target T1, 4-1BB (coated on ELISA plate). Briefly: ELISA, binding OD450 / expression OD450, after 45 °C 30 min. How it is done:
as §1

In assay [3] the target is 4-1BB on transfected NF-κB Jurkat cells (UniProt Q07011 24-255, limits assumed). Briefly: cell-based or functional assay.
4-1BB on transfected NF-κB Jurkat cells, sequence (Q07011 24-255 limits assumed): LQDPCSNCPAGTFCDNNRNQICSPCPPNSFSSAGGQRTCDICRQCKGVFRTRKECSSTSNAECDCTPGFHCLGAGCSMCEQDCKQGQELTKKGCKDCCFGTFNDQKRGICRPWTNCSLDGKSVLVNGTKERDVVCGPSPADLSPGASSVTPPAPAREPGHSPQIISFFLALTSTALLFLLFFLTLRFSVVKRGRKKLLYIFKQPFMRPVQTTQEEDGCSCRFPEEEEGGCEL
Assay [4] concerns the target T1, 4-1BB (coated on ELISA plate). Briefly: ELISA, binding/expression ratio relative to WT. How it is done: as §1
(§2) The 4-1BB-binding activity was measured using the same methods described above. With respect to 4-1BB-mediated NF-κB reporter activity, a 96-well plate (flat bottom) was coated with 5 μg/ml anti-c-myc antibody at 4° C. overnight. The induced 4-1BBL variant supernatants were added to the pre-coated plate, and the plate was incubated at 37° C. for 2 hours. The above steps were repeated for six times. Afterwards, 1×10⁵/well of transfected NF-κB Jurkat cells expressing 4-1BB was added to the plate, which was then incubated for 5 hours at 37° C. After the incubation, the luminance signal was detected to determine the 4-1BB reporter activity.

The target is the same in assay [5]. Briefly: ELISA, binding OD450 / expression OD450. How it is done: as §1, §2
For assay [6] the target is unchanged. In words: ELISA, binding OD450 / expression OD450. How it is done: as §1
The source holds these as a separate data set.

Assay [7] has the same target. Briefly: ELISA on coated 4-1BB, supernatant after 45 °C 30 min, OD450. How it is done:
as §1

The target is the same in assay [8]. In words: ELISA on coated 4-1BB, supernatant. The method, then:
as §1, §2

B1: 1D2 (ligand)
4-1BBL variant: ACPWAVSGARASPGSAASPRLREGPELSPDDPAGLLDLRQGMFAQLVAQNVLLIDGPLSWYEDPGLAGVSLTGGLSYKEDTKELVVAKAGVYYVFFQLELRRVVAGTGSGSVSLALHLQPLRSAAGAAALALTVDLPPASSEARNSAFGFQGRLLHLSAGQRLGVHLHTEARARHALQLTQGATVLGLFRVTPEIPAGLPSPRSE
notes: also called 4-1BBL variant 1D2 (phagemid clone, bacterial supernatant)
As for B1, the “Binding (25 °C)” value in assay [1] was found to be 1.16. Also, the “Binding / Expression ratio (45degrees)” value in assay [2] was 0.553. In assay [3], the “Reporter (RLU)” value is 4390 RLU, the “Reporter (vs wt)” value turned out to be 0.75 and the Reporter/Expression ratio is 2150. Besides, in assay [4], the “Binding (vs wt)” value stood at 0.38. In assay [5], the Binding/Expression ratio was 0.66. For the same molecule, the “Binding / Expression ratio (25 degrees)” value in assay [6] worked out at 0.525. For the same molecule, in assay [7], the “Binding (45 °C)” value was found to be 0.803. The “Binding (OD450)” value in assay [8] was determined as 1.35 OD450.

B2: 8E2 (ligand)
4-1BBL variant: B1 4-1BBL variant with E62P, G106F, T107E, A176S, L177W
notes: also called 4-1BBL variant 8E2 (phagemid clone, bacterial supernatant)
Consider B2, for which the “Binding (25 °C)” value in assay [1] came to 0.231. For the same molecule, in assay [2], the “Binding / Expression ratio (45degrees)” value was 0.388. In assay [3], the “Reporter (RLU)” value came out at 4880 RLU, the “Reporter (vs wt)” value came out at 0.9 and the Reporter/Expression ratio was found to be 2570. Further, the “Binding (vs wt)” value in assay [4] worked out at 0.12. Also, the Binding/Expression ratio in assay [5] came to 0.21. Moreover, the “Binding / Expression ratio (25 degrees)” value in assay [6] was found to be 0.188. Besides, in assay [7], the “Binding (45 °C)” value worked out at 0.309. The “Binding (OD450)” value in assay [8] turned out to be 0.392 OD450.

B3: 8B10 (ligand)
4-1BBL variant: B1 4-1BBL variant with E62T, T107M, A176S, L177W
notes: also called 4-1BBL variant 8B10 (phagemid clone, bacterial supernatant)
For the molecule B3, the “Binding (25 °C)” value in assay [1] was found to be 1.5. Besides, the “Binding / Expression ratio (45degrees)” value in assay [2] came to 0.636. Moreover, in assay [3], the “Reporter (RLU)” value stood at 8820 RLU, the “Reporter (vs wt)” value was determined as 4.66 and the Reporter/Expression ratio stood at 13300. The “Binding (vs wt)” value in assay [4] stood at 1.52. Besides, the Binding/Expression ratio in assay [5] turned out to be 2.65. In addition, in assay [6], the “Binding / Expression ratio (25 degrees)” value was found to be 1.79. In addition, the “Binding (45 °C)” value in assay [7] was 0.182. In addition, the “Binding (OD450)” value in assay [8] worked out at 1.75 OD450.

B4: 4C2 (ligand)
4-1BBL variant: B1 4-1BBL variant with E62P, T107R, L177W, L179F
notes: also called 4-1BBL variant 4C2 (phagemid clone, bacterial supernatant)
As to B4, in assay [1], the “Binding (25 °C)” value was found to be 0.657. The “Binding / Expression ratio (45degrees)” value in assay [2] was 0.506. Also, in assay [3], the “Reporter (RLU)” value turned out to be 3420 RLU, the “Reporter (vs wt)” value is 0.71 and the Reporter/Expression ratio worked out at 2040. The “Binding (vs wt)” value in assay [4] stood at 0.38. In assay [5], the Binding/Expression ratio stood at 0.67. For the same molecule, the “Binding / Expression ratio (25 degrees)” value in assay [6] was 0.431. Further, the “Binding (45 °C)” value in assay [7] was 0.823. For the same molecule, the “Binding (OD450)” value in assay [8] amounted to 1.12 OD450.

B5: 5D9 (ligand)
4-1BBL variant: B1 4-1BBL variant with W60F, E62S, L177W, L179M
notes: also called 4-1BBL variant 5D9 (phagemid clone, bacterial supernatant)
As for B5, the “Binding (25 °C)” value in assay [1] was 1.43. Further, in assay [2], the “Binding / Expression ratio (45degrees)” value worked out at 0.537. Moreover, in assay [3], the “Reporter (RLU)” value worked out at 4780 RLU, the “Reporter (vs wt)” value amounted to 1.48 and the Reporter/Expression ratio was 4240. The “Binding (vs wt)” value in assay [4] stood at 1.01. Moreover, the Binding/Expression ratio in assay [5] worked out at 1.75. Further, in assay [6], the “Binding / Expression ratio (25 degrees)” value stood at 1.53. The “Binding (45 °C)” value in assay [7] was found to be 0.205. Also, in assay [8], the “Binding (OD450)” value came to 1.98 OD450.

B6: 4E10 (ligand)
4-1BBL variant: B1 4-1BBL variant with E62P, G106R, T107E, L177M
notes: also called 4-1BBL variant 4E10 (phagemid clone, bacterial supernatant)
Regarding B6, in assay [1], the “Binding (25 °C)” value amounted to 1.36. The “Binding / Expression ratio (45degrees)” value in assay [2] came to 0.885. Moreover, in assay [3], the “Reporter (RLU)” value was determined as 7360 RLU, the “Reporter (vs wt)” value was 2.74 and the Reporter/Expression ratio worked out at 7830. Also, the “Binding (vs wt)” value in assay [4] was found to be 0.6. Besides, in assay [5], the Binding/Expression ratio amounted to 1.04. Besides, in assay [6], the “Binding / Expression ratio (25 degrees)” value amounted to 0.679. In assay [7], the “Binding (45 °C)” value was 1.25. In addition, the “Binding (OD450)” value in assay [8] was 0.975 OD450.
